# Assay: yeast display, Sf9 membrane polyspecificity reagent, FACS + sequencing; frameworks hold sequencing errors
# Method in brief: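 In a synthetic yeast display library (Saccharomyces cerevisiae BJ5465), nanobody expression was induced with galactose for 36–48 hours. FACS gates were set low and high (top ~1%) using anti-HA fluorescence for expression and streptavidin fluorescence for binding of the Sf9 membrane reagent. Each polyreactivity label is drawn from the gate of origin.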
row,Sequence,polyreactivity (PSR sort gate)
1,QVHLVESGGGLVQAGGSLRLSCAASGSIFEINAMGWYRQAPGKEWELVAAITGSGGSTHYADSVKGRFTISRDNAKNTVYLPMNSLNPEDTAVYYCAAVPRYQYGYWGQGTQVTVSS,low polyreactivity
2,QVQLVESGVGLVQAGGSLRLSCADSGSNFRYTMGCYRQAPWKERELVAAINRGASTYYADSVKGRFTISRDNAKKTVYLQMNSLKPVDNAVYYCAASVGTQGYHGDYWGQGTQVTVSS,high polyreactivity
3,QVQHVESGGGLVQAGGSLRLSSAASGFIFILYAMGWYTQAPGKERELVAAISSCGTRTYYADSVKGRFTISRDNAKNTVYLQMISLKPEDTGVYYCNTAWRDYVARLGGVGYDYWGQGTQVTVSS,high polyreactivity
4,QVQLVESGGGLVQAGGSLRLSCAASGSIFPHNAMGWYRQAPGKERELVAAISVSGGSTYYADSVKGRFTISRDNAKNTVYLQMNSLKPEDTAVYYCATRYGRARAYYYWGQGTQVTVSS,high polyreactivity
5,QVQLVESGGGLVQAGGSLRLSCAASGRIFSYYDMGWYRQAPGKEREFVAGITWNGGSTYYADSVKGRFTISRDNAKNTVYLQMNSLKPEDTAVYYCAAGVWRTRDWTYYYWGQGTQVTVSS,high polyreactivity
6,QVQLVESGGGLVQAGGSLRLSCAASGITFWNAMGWYRQAPGKERELVAAITSSGGSTYYADSVKGRFTISRDNAKNTVYLQMNSLKPEDTAVYYCAADYGRTRYDMDYWGQGTQVTVSS,low polyreactivity
7,QDQHVESVGGLVQAGGSLRLSCAASGSIIPLYAMGWYRQAPGKERELVAAISSRGGSTYYADSVKGRFSISRDNAKNTVYLQMKSLKPEDTAVYYCAVDTPSPSRGPRFNYWGQGTQVTVSS,high polyreactivity
8,QVQLVDSGGGLVQAGGSLRLSCAASGRLFDRNAMGWYRQGPGKERELVARIDPGDDTNYSYSVTGRFTISRDNAKNTVYLQMNSLKPEDTAVYYCATDPDYVLYRTAYYEYDYWGKGTQVTVSS,low polyreactivity
9,QFQLVESGGGLVQAGGSLRLSCAASGSTFTANAMGWYRQSPGKERELVAAITNSDGSTYYADSVKGRFTISRDNAKNTVYLQMNSLKPEDTAVYYCAKDYYACYWEMDYWGQGTQVTVSS,low polyreactivity
10,QVQLVESGGGLVQAGGSLRLSCAASGSIFITYVMGWSRQAPGKERELVAGISRSGGSTYYADSVKGRFTISRYNAKNTVYLQMNSLKPEDTAVYYCAAFFLRRPGSSGLRLLGQGTQVTVSS,high polyreactivity
11,QVQLVESGGGLVQAGGSLRLSCAASGRTFKYYAMGWARQAPGKERELVATISYNGASTYYADSVKGRFTSSRDNAKNSVYLQMNSQKPEDTAVYYCAAAYLWRGRLGYWGQGTQVTVSS,high polyreactivity
12,QVQLVESGGGLVQAGGSLRLSCAASGSIFVTNAMGWYRQAPGKERELVAAISNSGSSTYYADSVKGRFTISRDNAKNTVYLQMNSLKPEDTAVYYCAADWYGVTGSYYYWGQGTQVTVSS,high polyreactivity
13,QVQLVESGGGLVQAGGSLRLSCAASGSTFGYNAMGWYRQAPGKERELVAAISYSGGSTSYADSVKGRFTISRDNAKNIVYLQMNSLKPEDTAVYYCARDSYSQYSSQALEGYGYWGQGTQVTVSS,low polyreactivity
14,QVQLVESGGGLVQAGGSLRLSCAASGRIFRFYAMGWYRQAPRKERELVATIRRGDSTSYADSVKGRFTISRDNAKNTVYLQMNSLKPEDTAVYYCAAVWPSHVGTTYFWHKYGYWGQGTQVTVSS,high polyreactivity
15,QVQLVESGGGLVQAGGSLRLSCAASGNIFIYNAMGWYREAPGKERELVAVISNSGSTYYADSVKGRFTISRDNAKNTVYLQMHSLKPEDSAVYYCNKDGGGDSYWYDYWGQGTHVTVSS,low polyreactivity
16,QVQLVESGGGLVQAGGSLRLSCAASGSIFGLYAMGWYRQAPGKEREVFADITIGGSTYYADSVKGRFTISRDNAKNTVYLQMNSLKPEDTAVYYCASRPGSWYPSVPSYNYWGQGTQVTVSS,low polyreactivity
17,QVQLVESGGALVQAAGSLRLICAASVIISGCNGMGWYRQAPGKERELVASISDSGSSTYYADSVKGRFTISRDNAKNTVYLQMNSLKPEDTAVYYCATDLLASRYGYWGQGTQVTVSS,low polyreactivity
18,QVQLVESGGGLVQAGGSLRLSCAASGGTFDTYDMGWYRQAPGKERELVAAIRFGDGTTYYADSVKGRFTISRDNAKNTVYLQMNSLKPEDTAVYYCAAVFVWQPQYDQFRYDYWGQGTQVTVSS,low polyreactivity
19,QVQLVESGGGLVQAGGSLRLSCAASGSIFQLNAMGWYRQAPGKERELDAAITSGGSTYYADSVKGRFTISRDNAKNTVYLQMNSLKPEDTAVYYCAAYYLYTTPTSEWLSGYDYWGQGTQVTVSS,low polyreactivity
20,QVQLQESGSGLVQAGGSLRLSCAASGAIFPANLMGWYRQAPGKERELVAGISYGSITYCADSVKGRFNISRDNAKNTVYLQMNSLKPEDTAVYYCAVWRPGGDEYYYWGQGTQVTVSS,low polyreactivity
21,QVQIVESGGGLVQAGGSLRLSCAASGSTFVENAMGWYRPAPGKERELVAAISSSGDSTFYADSVKGRFTISRDNAKNNVYLQMNSLKPEDTAVYYCAADRRINYDGLDMDYWGQGTQVTVSS,low polyreactivity
22,QVQLVESGGGLVQAGGSLRLSCAASGYTFPPNAMGWYSQAPGKERELVAAISWRGDSTYYADSVKGRFTISRDNAKNTVYLQMISLKPEDTAVYYCAAGYRRGPDIYYYWGQVTQVTVSS,low polyreactivity

row,Sequence,polyreactivity (PSR sort gate)
1,QVQLVESGGGLVQAGGSLRLSCAASGSTFNGYAMGWYRQAPGKERELVADISRGDRTNYADSVKGRFTISRDNAKNTVYLQMKSLKREDTAVYYCAKDWLTDDPDKDPSVEYDYWGQGTQVTVSS,low polyreactivity
2,QVQIGESGGGLVQAGGSLRLSCAASGFIIGTNTMGWYRQAPGKERELVAAITSVGSTNYADSVKGRFTISRDNAKNTVYLQMNSLKPEDTAVYYCPATLYYQYGGDYWGQGTQVTVSS,low polyreactivity
3,QVQLEESRGGLVQAGGSLRLICAASGFTFRQNAMGWYRQAPGKERELVAAISRGGGGTHYADSVKGRFSISRDNAKNTVYLQMNSLKPEDTAVYYCAKRRYPTFVVPVYYWGQGTQVTVSS,high polyreactivity
4,QVQLEESGGGLVQAGGSLRLICAASGRNFGYYPMGWYRQAPGKERELVAAISGSGGTTYYADSVKGRFTISRDIAKNTVYLQMISLKPEDTAVYYCNAGFGYYWHRGFFQYDYWGQGTQVTVSS,high polyreactivity
5,QVQLVESGGGLVQAGGSLRLSCAASGRIGYNVMGWYRPAPGKERELVADISRGGGRTYYADSVKGRFTISRDNAKNTVYLQMNSLKPEDTAVYYCNAVTYYVDGGWYDYDYWGQGTQVTVSS,high polyreactivity
6,QVQLVESGGGLVQAGGILRLSCAASGRTFVRNTMGWYRQAPGKERELVAVISRSGGSTYYADSVKGRFTISRDNAKNTVYLQMNRLKPEDTAVYYCNADTYSAGDYWGQGSQVTVSS,high polyreactivity
7,QVQLVESGGGLVQAGGSLRLSCAASGRNFKNYDMVWYRQAPGKERELVADISWRSGSTNYSDSVKGRFTISRDNAKNNVYLQMNSLKPEDTAVYYCASKRRISGWSQFTSYADFDYWGQGTQVTVSS,low polyreactivity
8,QVQLVESGGGLVQAGGSLRLSCAASGSIFADYAMGWSRQAPGKEREFVAAITRSGTSTYYADSVKGRFTISRDNAKNTVYLQMNSLKPEDTAVYYCAKTEVLLYLYTLDYWGQGTQVTVSS,low polyreactivity
9,QVQLVESGGGLVQAGGSLRLSCAASGSTFHWYDMGWYRPAPGKERELVAGINSSGDGTYYADSVKGRFTISRDNAKNTVYLQMNSLKPEDTAVYYCAAPWWYYGVPYQTNKYDYWGQGTQVTVSS,low polyreactivity
10,QVQLVESGGGLVQAGGSLRLSCAASGNIFSGNAMGWYRQAPGKERELVAAISWSGGSTYYADSVKGRFTISRDNAKNTVYLQMNSLKPEDTAVYYCNKDLYADGQYNYDYWGQGTQVTVSS,low polyreactivity
11,QVQLVESCGGLVQAGGSLRLSCAASGSIFAYYAMGWYRQAPGKERDLVAAISRGGGSTYYADSVTGRFTLSRDNAKNTVYLQMNSLKQEDTAVYYCDAYYAKGRAYDYDYWGQGTQVTVSS,high polyreactivity
12,QVQLVESGGGLVQAGGSLRLSSAASGITFYYYAMGWYRQAPGKERELVAAINWSGTSTYYADSVKGRFTISRDNAKNTVYLQMNSLKPEDTAVYYCNAERGRSFWWAYDYWGQGTQVTVSS,low polyreactivity
13,QVQLVESGGGLVQAGGSLRLSCAASGRTFFANAMGWYRQAPGKERELVAAISGSGDRTYYADSVKGRFTISRDNAKNTVYLQMNSLKPEDTAVYYCAAAGWSARGYNYWGQGTQVTVSS,high polyreactivity
14,QVQLVESGGGLVQAGGSLRLSCAASGSTFRVNAMGWYRQAPGKERELVAVITSGGSTYADSVKGRFTISRDNAKNTVYLQMNSLKPEDTAVYYCAAESRWSWVHWSAYTYDYWGQGTQVTVSS,low polyreactivity
15,QVQLVESGGGLVQAGGSLRLSCAASGRIFHSNAMGWYRQAPGKESELVADINRDGSTNYADSVKGRFTISRDNAKNTVYLQMNSLKPEDTAVYYCAKPYYSWPRYNHFEYWGQGTQVTVSS,low polyreactivity
16,QVQLVESGGGLVQAGGSLRLSCAASGRIFARYAMGWNRQAPGKERELVAAISFRGGSTYYADSVKGRFTISRDNAKNTVYLQINSLKPEDTAVYYWNARYGRGGYDYWGQGTQVTVSS,high polyreactivity
17,QVQLVESGGGLVQAGGSLRLSCAASGFIFEGYAMGWYRQAPGKERELVAAINWSGTTTYYADSVKGRFTISRDNAKNTVYLQMNSLKPEDTAVYYCNARYYVLRGYDYWGQGTQVTVSS,low polyreactivity
18,QVQLGESGGGLVQAGGSLRLSCAASGSTFIDYAMGWYRQAPGKERELVAAITNGGNTKYADSVKGRFTISRDNAKNTVYLQMNSLKPEDTAVYYCAKYYYTSIVGYDSWGQGTQVTVSS,low polyreactivity
19,QVQLVESGGGLVQAGGSLRLSCAASGLTFTYYAMGWYRQAPGKERELVAAISWSGGSTYYADSVKGRFTISRDKAKNTVYLQMNSLKPEDTAVYYCAAVDPFTPYDRTYTTDGRESDYWGQGTQVTVSS,low polyreactivity
20,QVQLVESGAGLVQAGGSLRLTCAASGRIFVINAMGWLRQAPGKETELVAPITGGGSTNYADSVKGRFTISRDNAKNTVYLQMNSLKPEDTAVYYCAADYRPVRRFYYSRYDYWGQGTQVTVSS,low polyreactivity
21,QVQLVESGGGLVQAGGSLRLSCAASGLIFGWNAMGWYRQAPGKERELVAAISSGGSTNYADSVKGRFTISRDNAKNTVYLQMNRLKPEDNAVYYCATRNGYSGTYGYWGQGTQVTVSS,low polyreactivity

# — the nanobody polyreactivity screen of Harvey et al. (2022)
